Assay results: publication PMC3401450 (Nucleic Acids Research, 2012)
Several values for one entry are separate records, joined by “and”; a condition that tells them apart may be missing. Equal entries are not always repeated.

Tests used:
[1] = biological target: Full-length Dreb2a fused to His-tag and GB1-tag (GB1-Dreb2a f.l.) (A. thaliana) (UniProt O82132); assay: cross-linking
[2] = biological target: T1, Dreb2a 168-335 (binding domain and activation domain of Dreb2a) (A. thaliana, UniProt O82132 168-335); assay: SPR
T1 sequence (looked up): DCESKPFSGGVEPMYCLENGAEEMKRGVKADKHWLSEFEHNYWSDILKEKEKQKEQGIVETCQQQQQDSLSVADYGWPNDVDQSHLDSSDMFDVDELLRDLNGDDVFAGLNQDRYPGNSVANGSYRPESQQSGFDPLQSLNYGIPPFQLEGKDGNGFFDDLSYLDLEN

[3] = biological target: T2, Full-length Dreb2a fused to His-tag and GB1-tag (GB1-Dreb2a f.l.) (A. thaliana, UniProt O82132 1-335); assay: cross-linking
[4] = biological target: T2, Full-length Dreb2a fused to His-tag and …; assay: SPR
[5] = biological target: Dreb2a f.l. (GB1 fusion) (Arabidopsis thaliana, UniProt O82132 1-335); assay: EMSA
[6] = biological target: Dreb2a f.l. (GB1 fusion);Med25 551-680 (ACID domain) (Arabidopsis thaliana;Arabidopsis …, UniProt O82132;Q7XYY2 1-335;551-680, |); assay: EMSA supershift

Med25 551-680-GST (GST-tagged ACID domain of Arabidopsis thaliana Med25) (from UniProt Q7XYY2 551-680) (domain or fragment)
stoichiometry N [1]: 1 and 2

B1: Med25 551-680 (ACID domain of the Med25 mediator subunit from Arabidopsis thaliana), GST-tag removed (domain or fragment, A. thaliana, UniProt Q7XYY2 551-680, looked up)
chain: TSQSKYVKVWEGNLSGQRQGQPVLITRLEGYRSASASDSLAANWPPTMQIVRLISQDHMNNKQYVGKADFLVFRAMSQHGFLGQLQDKKLCAVIQLPSQTLLLSVSDKACRLIGMLFPGDMVVFKPQIPN
Kd [2]: ~1000 nM | stoichiometry N [3]: 2 | Kd [4]: ~100 nM

B2: 29-nt rd29A mutated DRE mut-probe (dsDNA)
DNA 1: AAAGATATACTACTTTTATGAGTTCCAAA
DNA 2: TTTGGAACTCATAAAAGTAGTATATCTTT
binding result [5]: no binding

B3: 29-nt rd29A DRE Wt-probe (dsDNA)
DNA 1: AAAGATATACTACCGACATGAGTTCCAAA
DNA 2: TTTGGAACTCATGTCGGTAGTATATCTTT
binding result [6]: binds | binding result [5]: binds
